Measured values published in PMC10398351, “Structural and molecular insight into antibody recognition of dynamic neoepitopes in membrane tethered MUC1 of pancreatic cancer cells and secreted exosomes†” (RSC Chemical Biology, 2023).
One block for each binder: values may come before it.

Tests used:
[1] = molecular target: T1, PANC-1 cell surface MUC1 (Homo sapiens, PANC-1 cells, UniProt P15941, O-glycans ST, T and/or Tn at the Thr of the Asp-Thr-Arg region, as the paper concludes); test: flow cytometry on cells; PANC-1 cells with Alexa 488 conjugated SN-131, 2 h on ice in PBS/EDTA, without or with 10 μM MUC1-5ST (8); details: one partner purified
T1 construct: MUC1, type 1 single-pass transmembrane mucin, endogenous in the human pancreatic cancer cell line PANC-1 (ATCC CRL-1469); also called endogenous MUC1 TRD; membrane-tethered MUC1; source: endogenous, on PANC-1 cells
T1 sequence (P15941 24-1255): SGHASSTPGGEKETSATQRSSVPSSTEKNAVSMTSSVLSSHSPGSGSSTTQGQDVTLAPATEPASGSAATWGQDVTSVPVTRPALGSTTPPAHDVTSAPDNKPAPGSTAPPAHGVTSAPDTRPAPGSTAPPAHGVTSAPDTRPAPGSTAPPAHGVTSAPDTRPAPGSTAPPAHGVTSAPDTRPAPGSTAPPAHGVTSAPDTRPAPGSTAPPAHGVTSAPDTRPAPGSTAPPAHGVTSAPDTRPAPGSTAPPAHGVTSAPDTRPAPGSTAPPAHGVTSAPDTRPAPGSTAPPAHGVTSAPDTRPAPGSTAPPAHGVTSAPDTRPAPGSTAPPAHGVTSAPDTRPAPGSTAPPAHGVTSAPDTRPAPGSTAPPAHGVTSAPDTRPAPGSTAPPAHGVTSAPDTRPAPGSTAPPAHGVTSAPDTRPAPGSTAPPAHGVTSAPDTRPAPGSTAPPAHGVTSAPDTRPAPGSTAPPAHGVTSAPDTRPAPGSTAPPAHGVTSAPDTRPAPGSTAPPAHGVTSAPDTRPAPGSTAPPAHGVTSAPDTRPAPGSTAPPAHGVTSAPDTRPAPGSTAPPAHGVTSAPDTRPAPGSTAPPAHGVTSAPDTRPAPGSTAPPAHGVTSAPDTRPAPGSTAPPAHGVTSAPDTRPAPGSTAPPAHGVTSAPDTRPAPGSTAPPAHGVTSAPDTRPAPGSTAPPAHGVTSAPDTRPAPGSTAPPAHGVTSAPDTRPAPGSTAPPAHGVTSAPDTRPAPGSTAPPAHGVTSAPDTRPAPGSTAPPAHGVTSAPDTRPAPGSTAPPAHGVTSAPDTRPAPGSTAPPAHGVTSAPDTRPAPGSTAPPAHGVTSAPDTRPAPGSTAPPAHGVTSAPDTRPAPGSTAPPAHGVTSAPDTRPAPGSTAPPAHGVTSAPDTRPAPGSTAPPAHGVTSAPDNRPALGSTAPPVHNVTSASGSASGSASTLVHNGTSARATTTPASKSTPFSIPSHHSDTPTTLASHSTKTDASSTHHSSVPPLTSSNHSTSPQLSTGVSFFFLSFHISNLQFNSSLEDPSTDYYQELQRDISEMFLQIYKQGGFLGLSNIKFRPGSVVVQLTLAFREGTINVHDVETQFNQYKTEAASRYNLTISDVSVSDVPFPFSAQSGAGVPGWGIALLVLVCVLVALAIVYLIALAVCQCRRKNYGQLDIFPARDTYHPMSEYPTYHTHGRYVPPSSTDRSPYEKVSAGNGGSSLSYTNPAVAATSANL

[2] = molecular target: T2, MUC1 TRD on exosomes released from PANC-1 cells (Homo sapiens, PANC-1 exosomes, UniProt P15941); test: ELISA; sandwich: exosomes from PANC-1 cells captured by coated anti-CD9 or anti-CD63 mAb, detected with AP-labelled SN-131 (1 μg/mL), room temperature; details: one partner purified
T2 construct: also called exosomal MUC1 TRD-STs; cargo MUC1 TRD; source: endogenous, exosomes isolated by ultracentrifugation from PANC-1 culture supernatant
T2 sequence (P15941 24-1255): as above

binding result [1]: binds
B1: Alexa488-conjugated SN-131 (antibody, V domains shown)
VH: QVQLQQSGAELARPGASVKLSCKASGYTFTNYGLSWVKQRTGQGLEWIGENHPGSGIIYHNEKFRGKATLTADKSSSTAYVQLSSLTSEDSAVYFCARSSGTRGFAYWGQGTLVTVSA
VL: DVLMTQTPLSLPVSLGDQASISCRSSQSIVHSNGNTYLEWYLQKPGQSPKLLIYKVSNRFSGVPDRFSGSGSGTDFTLKISRVEAEDLGVYYCFQGSHGPWTFGGGTKLEIK
notes: as the heavy chain of m1; Fab chains in PDB 8HRH; as the light chain of m1; IgG2a

binding result [2]: binds
B2: AP (alkaline phosphatase) labelled SN-131 mAb (antibody, V domains shown)
VH: B1 VH
VL: B1 VL
notes: as for B1
